Assay results: paper doi:10.1101/358382
Like-named read-outs stand apart in the source and are kept apart here. Blank lines part the entries; values can stand above or below the substance they belong to.

How the values were obtained:
MBP-DurN = assay: fluorescence polarisation
[1] = target: fluorescently labeled duramycin; assay: fluorescence polarisation
DurN [2] = assay: crystal structure
DurN [3] = assay: crystal structure; remark: listed apart in the source
DurN [4] = assay: crystal structure; remark: listed apart in the source

Ki (MBP-DurN): 2.72 µM
Substance: duramycin (peptide)

Ki (MBP-DurN): 10.2 µM
Substance: 1-Hya15Ser (peptide)

Second part, the substance before the results:

Substance: MBP-DurN K66A (enzyme)
Ki [1]: 7.43 µM

Substance: MBP-DurN (enzyme)
Kd [1]: 0.417 µM

Substance: DurN (enzyme)
stoichiometry N (DurN [2]): 2
stoichiometry N (DurN [3]): 2
stoichiometry N (DurN [4]): 2
